Ends that are not written are not given here.
Experiments:
α-thrombin [1] = molecular target: T1, α-thrombin (Homo sapiens, UniProt P00734); assay: Confirmatory binding assay in column chromatographic format, peptides synthesized on A-Totda-Toyopearl; conditions: for binding of thrombin to peptide resin (in words): summary of Table 2; for dose dependence of thrombin in the acid eluant (in words): 50, 100 and 200 μg α-thrombin
T1 construct: α-Thrombin is the active form of the plasma serine protease zymogen, prothrombin; purchased Enzyme Research Labs (South Bend, Ind.)
Protocol: Confirmatory binding assays were performed in a column chromatographic format on a microbore HPLC using individual peptide sequences synthesized directly onto the Toyopearl 650 M Chelate resin which had been modified with Totda followed by an alanine residue (A-Totda-Toyopearl), at a final substitution density of 0.2 mmol/g resin. […] The endpoint was a dose-dependent increase in the acid eluate in the thrombin contactings, and quantification was by integration of the absorbance at 280 nm.

α-thrombin [2] = molecular target: T1, α-thrombin; assay: Purification of α-thrombin from activated PTC eluate on YFPGPYL-Totda-Toyopearl; type: binding
Protocol: Human pooled plasma was processed to PTC eluate by standard manufacturing procedures as indicated in Example 1. A sample of the PTC eluate was activated in the presence of 50 mM CaCl2 for 6 days at 4° C. Approximately 1 ml of the activated PTC eluate, spiked with 300 μg α-thrombin, was injected onto the peptide resin YFPGPYL-Totda-Toyopearl (FIG. 6). The column was washed with equilibration buffer (10 mM HEPES, pH 6.5, 10 mM CaCl2, 500 mM NaCl, 0.1% (v/v) PEG-400) until the A280 returned to base-line. […] Acid treatment (2% acetic acid) was used as a cleaning step to remove protein still bound to the column.

[3] = 50 μg α-thrombin applied, integration of A280
[4] = 100 μg α-thrombin applied, integration of A280
[5] = 200 μg α-thrombin applied, integration of A280

| Absorbance, 280 nm 1M NaCl Eluate (α-thrombin [1]; [3]) | Absorbance, 280 nm 2% Acetic Acid (α-thrombin [1]; [3]) | Absorbance, 280 nm 1M NaCl Eluate (α-thrombin [1]; [4]) | Absorbance, 280 nm 2% Acetic Acid (α-thrombin [1]; [4]) | Absorbance, 280 nm 1M NaCl Eluate (α-thrombin [1]; [5]) | Absorbance, 280 nm 2% Acetic Acid (α-thrombin [1]; [5]) | binding of thrombin to peptide resin (in words) (α-thrombin [1]) | dose dependence of thrombin in the acid eluant (in words) (α-thrombin [1]) | thrombin content of protein released by 1 mM sodium citrate pH 7.0 (α-thrombin [2]; quantitative scanning of SDS-PAGE, activated PTC eluate spiked with 300 μg α-thrombin) | binding of thrombin from activated PTC eluate (in words) (α-thrombin [2]; released by 1 mM sodium citrate pH 7.0) | Absorbance, 280 nm 2% Acetic Acid (α-thrombin [1]; 50 μg α-thrombin applied in a solution containing 5 mg/ml hSA) | Absorbance, 280 nm 2% Acetic Acid (α-thrombin [1]; 100 μg α-thrombin applied in a solution containing 5 mg/ml hSA) | Absorbance, 280 nm 2% Acetic Acid (α-thrombin [1]; 200 μg α-thrombin applied in a solution containing 5 mg/ml hSA) | Substance |
| --- | --- | --- | --- | --- | --- | --- | --- | --- | --- | --- | --- | --- | --- |
| np | 0.88 | np | 1.46 | np | 2.01 | bound thrombin | – | – | – | – | – | – | VFPYGW (not fully specified (C-terminus)) [peptide synthesized on A-Totda-Toyopearl resin] |
| np | 0.47 | np | 0.79 | np | 1.37 | bound thrombin | – | – | – | – | – | – | PFPYGW (not fully specified (C-terminus)) [peptide synthesized on A-Totda-Toyopearl resin] |
| np | 2.82 | np | 2.14 | np | 3.32 | bound thrombin | not in a dose dependent manner | – | – | – | – | – | PFPYVW (not fully specified (C-terminus)) [peptide synthesized on A-Totda-Toyopearl resin] |
| 0.00 | 0.00 | 0.18 | 0.00 | 0.69 | 0.00 | not | – | – | – | – | – | – | ERPYHG (not fully specified (C-terminus)) [peptide synthesized on A-Totda-Toyopearl resin] |
| np | 0.81 | np | 1.21 | np | 1.81 | bound thrombin | – | – | – | – | – | – | VFPYVW (not fully specified (C-terminus)) [peptide synthesized on A-Totda-Toyopearl resin] |
| np | 0.00 | np | 0.00 | np | 0.00 | – | – | – | – | – | – | – | LTPFAV (not fully specified (C-terminus)) [peptide synthesized on A-Totda-Toyopearl resin] |
| np | 0.16 | np | 0.28 | np | 0.34 | bound thrombin | – | – | – | – | – | – | YTPFAV (not fully specified (C-terminus)) [peptide synthesized on A-Totda-Toyopearl resin] |
| 0.00 | 0.15 | 0.00 | 0.29 | 0.10 | 0.45 | bound thrombin | – | – | – | – | – | – | FEPANP (not fully specified (C-terminus)) [peptide synthesized on A-Totda-Toyopearl resin] |
| – | – | – | – | – | – | bound thrombin | dose dependent increase | at least 72% | thrombin bound | 2.10 | 2.93 | 4.72 | YFPGPYL (not fully specified (C-terminus)) |
| np | 0.75 | np | 1.49 | np | 2.83 | enhanced binding | – | – | – | – | – | – | RQLWQSH [RQLWGSH, variant of QLWGSH with added amino-terminal arginine, on A-Totda-Toyopearl resin] |
| 0.16 | 1.48 | 0.18 | 1.57 | np | 3.59 | bound thrombin | – | – | – | – | – | – | VFPYAW (not fully specified (C-terminus)) [peptide synthesized on A-Totda-Toyopearl resin] |
| np | 0.18 | np | 0.44 | np | 1.25 | bound thrombin | – | – | – | – | – | – | LFAPTL |
| np | 0.00 | np | 0.00 | np | 0.00 | – | – | – | – | – | – | – | VTPFAV (not fully specified (C-terminus)) [peptide synthesized on A-Totda-Toyopearl resin] |
| np | 0.58 | np | 0.95 | np | 1.76 | enhanced binding | – | – | – | – | – | – | HQLWGSH |
| np | 0.57 | np | 0.71 | np | 2.06 | bound thrombin | – | – | – | – | – | – | SVRPFL (not fully specified (C-terminus)) [peptide synthesized on A-Totda-Toyopearl resin] |
| 0.00 | 0.71 | 0.00 | 1.42 | 0.13 | 2.73 | bound thrombin | – | – | – | – | – | – | GFRNGP [GERNGP] |
| np | np | np | np | np | np | not | – | – | – | – | – | – | PFAPTL |
| 0.12 | 0.41 | 0.15 | 0.77 | 0.25 | 1.71 | bound thrombin | – | – | – | – | – | – | GFRKGP (not fully specified (C-terminus)) [peptide synthesized on A-Totda-Toyopearl resin] |
| 0.23 | 0.41 | 0.23 | 0.99 | 0.26 | 2.38 | bound thrombin | – | – | – | – | – | – | ERPYKG (not fully specified (C-terminus)) [peptide synthesized on A-Totda-Toyopearl resin] |
| np | 0.50 | np | 1.05 | np | 1.10 | bound thrombin | – | – | – | – | – | – | PFPYAW (not fully specified (C-terminus)) [peptide synthesized on A-Totda-Toyopearl resin] |

Source: patent US5831003A, “Peptides which bind to prothrombin and thrombin” (Bayer Corporation, priority 1996, dated 1998)
